# In patent US8367124B2, “Lymphatic vessel stabilizer” (Shiseido Company, Ltd., priority 2008, dated 2013):
# Columns and labels:
# [1] = target: T1, Tie2 (Homo sapiens, UniProt Q02763); experiment: Western blotting of lymphatic endothelial cells (Tie2 phosphorylation); type: cell-based; conditions: Western blot of Tie2 and phosphorylated Tie2, DMSO control, compared with Ang-1
# T1 construct: endogenous in cells; host or cells: primary human lymphatic endothelial cells from infant foreskin
# Procedure: Lymphatic endothelial cells were isolated from human infant foreskin as CD31-positive, CD34-negative, CD45-negative cells (Non-Patent Document 6). The lymphatic endothelial cells were cultured in EBM-2 (Cambrex, Verviers, Belgium) supplemented with addition factors, and protein was extracted with Phosphosafe Extraction Reagent (Novagen, Madison, Wis.) in the presence of various drugs (Ang-1, cinnamon bark extract, Siberian Ginseng extract and syringaresinol). Cells supplemented with DMSO were prepared as a control.
# Furthermore, the cinnamon bark extract and syringaresinol were prepared in the manner indicated below. The Siberian Ginseng extract (Ask Intercity) was obtained by extracting Siberian Ginseng root with 30% ethanol. This extract was confirmed to contain 1.01% by weight syringaresinol by HPLC. This extract was then dissolved with DMSO for use as each test sample. The total amount of protein was determined with the RC DC Protein Assay Kit (BIO-RAD, Hercules, Calif.), and detected by Western blotting in the manner described below. An equal amount of total protein was subjected to SDS-PAGE using 7.5% acrylamide gel (NPU-7.5L, ATTO, Japan), and expression of Tie2 and phosphorylated Tie2 protein was confirmed by staining with an ECL Kit using […] (Santa Cruz Biotechnology, Santa Cruz, Calif.).
# [2] = tested on: lymphatic vessels; experiment: Lymph drainage assay (colloidal carbon injected into the auricle of mice infected with Ang-1 adenovirus); type: in vivo, mouse
# Procedure: The auricles of 8-week-old mice were infected with adenovirus (1×10^9 ifu/mouse), in which mouse-derived angiopoietin-1 (Ang-1) gene was incorporated into an AdenoX vector, with a Hamilton syringe (Hamilton, Reno. NV). Mice were also infected with adenovirus incorporating only AdenoX vector as a control. 1 μl of colloidal carbon solution (Kamei Co., Ltd., Japan) was injected into the tip of the auricle with a Hamilton syringe followed by analysis of time-based changes in the flow of lymph. […] In addition, a visual assessment of changes in lymphatic vessel recovery function was also carried out, and comparisons were made by scoring to one of levels (5: all ink remaining in lymphatic vessels, 1: all ink recovered and no longer present in lymphatic vessels), the results of which are shown in FIG. 1.
# In addition, after sacrificing the animals by anesthesia, the ears of the animals were simultaneously collected and crushed in liquid nitrogen followed by extraction of protein with Phosphosafe Extraction Reagent (Novagen, Madison, Wis.). The total amount of protein was determined with the RC DC Protein Assay Kit (BIO-RAD, Hercules, Calif.) and detected by Western blotting in the manner described below. […]
# T1 sequence (Q02763 23-1124): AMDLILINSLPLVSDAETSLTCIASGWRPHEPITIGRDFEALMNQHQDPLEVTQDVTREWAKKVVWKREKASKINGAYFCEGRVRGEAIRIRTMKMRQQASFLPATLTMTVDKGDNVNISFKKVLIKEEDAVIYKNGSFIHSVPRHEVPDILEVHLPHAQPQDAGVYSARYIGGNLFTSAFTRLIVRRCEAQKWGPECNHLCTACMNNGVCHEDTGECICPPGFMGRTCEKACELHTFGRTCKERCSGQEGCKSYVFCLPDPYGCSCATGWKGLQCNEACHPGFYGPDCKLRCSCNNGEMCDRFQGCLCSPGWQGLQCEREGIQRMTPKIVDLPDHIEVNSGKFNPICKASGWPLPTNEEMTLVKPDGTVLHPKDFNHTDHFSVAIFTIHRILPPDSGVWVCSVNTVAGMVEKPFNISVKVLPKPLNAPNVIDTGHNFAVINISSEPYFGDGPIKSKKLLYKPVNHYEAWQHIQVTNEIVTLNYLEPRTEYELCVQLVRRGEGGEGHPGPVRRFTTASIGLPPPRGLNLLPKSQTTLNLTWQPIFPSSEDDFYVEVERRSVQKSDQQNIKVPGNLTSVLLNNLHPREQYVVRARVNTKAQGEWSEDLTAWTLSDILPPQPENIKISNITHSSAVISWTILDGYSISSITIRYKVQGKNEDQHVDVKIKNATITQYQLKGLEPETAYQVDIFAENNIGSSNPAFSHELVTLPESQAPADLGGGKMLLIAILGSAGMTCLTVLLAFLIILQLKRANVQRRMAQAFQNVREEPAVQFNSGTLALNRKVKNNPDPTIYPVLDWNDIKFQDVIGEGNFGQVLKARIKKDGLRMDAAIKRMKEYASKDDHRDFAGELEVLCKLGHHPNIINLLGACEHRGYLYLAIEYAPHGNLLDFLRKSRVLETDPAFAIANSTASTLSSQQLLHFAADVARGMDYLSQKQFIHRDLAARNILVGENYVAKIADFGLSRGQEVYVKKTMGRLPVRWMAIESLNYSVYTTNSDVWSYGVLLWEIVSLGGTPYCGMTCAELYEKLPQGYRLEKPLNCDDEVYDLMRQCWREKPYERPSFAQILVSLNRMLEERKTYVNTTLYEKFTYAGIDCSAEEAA
Molecule,Tie2 phosphorylation (activation) [1],"lymphatic vessel recovery function (time-based changes in the flow of lymph) ([2]; ears of mice highly expressing Ang1 via adenovirus, 1 μl colloidal carbon into tip of auricle, vs AdenoX vector control, data not shown)","lymphatic vessel recovery function, visual assessment score (5: all ink remaining, 1: all ink recovered) ([2]; mouse auricle, Ang-1 adenovirus vs AdenoX vector control, FIG. 1)"
"COc1cc(C2OCC3C(c4cc(OC)c(O)c(OC)c4)OCC23)cc(OC)c1O (stereo not drawn) [syringaresinol, Syringaresinol]",confirmed to activate Tie2 in the same manner as Ang-1,–,–
"angiopoietin 1 (protein, UniProt O08538 20-498, looked up, adenovirus-expressed, mouse-derived Ang-1 gene expressed from AdenoX adenovirus vector in vivo) Angiopoietin-1: SNQRRNPENGGRRYNRIQHGQCAYTFILPEHDGNCRESATEQYNTNALQRDAPHVEPDFSSQKLQHLEHVMENYTQWLQKLENYIVENMKSEMAQIQQNAVQNHTATMLEIGTSLLSQTAEQTRKLTDVETQVLNQTSRLEIQLLENSLSTYKLEKQLLQQTNEILKIHEKNSLLEHKILEMEGKHKEELDTLKEEKENLQGLVSRQTFIIQELEKQLSRATNNNSILQKQQLELMDTVHNLISLCTKEGVLLKGGKREEEKPFRDCADVYQAGFNKSGIYTIYFNNMPEPKKVFCNMDVNGGGWTVIQHREDGSLDFQRGWKEYKMGFGNPSGEYWLGNEFIFAITSQRQYMLRIELMDWEGNRAYSQYDRFHIGNEKQNYRLYLKGHTGTAGKQSSLILHGADFSTKDADNDNCMCKCALMLTGGWWFDACGPSNLNGMFYTAGQNHGKLNGIKWHYFKGPSYSLRSTTMMIRPLDF",–,promoted,remarkable promotion of lymphatic vessel recovery function
